Ends that are not written are not given here. * marks the point of attachment. Biotin = O=C1N[C@H]2[C@H](CS[C@H]2CCCCC(=O)*)N1
T1: glucose-6-phosphate dehydrogenase from Leuconostoc mesenteroides (Sigma) (Leuconostoc mesenteroides, UniProt P11411 2-486)
T1 construct: Bought protein spotted on nitrocellulose
T1 sequence: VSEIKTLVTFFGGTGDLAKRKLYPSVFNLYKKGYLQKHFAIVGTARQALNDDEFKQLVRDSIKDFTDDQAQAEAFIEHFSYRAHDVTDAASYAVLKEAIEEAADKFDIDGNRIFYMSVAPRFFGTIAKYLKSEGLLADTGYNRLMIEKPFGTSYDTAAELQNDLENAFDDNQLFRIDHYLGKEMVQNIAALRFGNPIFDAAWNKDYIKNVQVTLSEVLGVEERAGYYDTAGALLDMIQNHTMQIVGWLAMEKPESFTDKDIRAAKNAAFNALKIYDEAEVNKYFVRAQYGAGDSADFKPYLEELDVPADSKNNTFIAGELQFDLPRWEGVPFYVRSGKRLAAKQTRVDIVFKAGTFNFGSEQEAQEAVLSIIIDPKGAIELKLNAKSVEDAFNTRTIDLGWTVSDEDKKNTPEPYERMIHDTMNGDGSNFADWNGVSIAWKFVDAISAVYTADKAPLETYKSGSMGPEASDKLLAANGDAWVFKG

T2: citrate synthase from porcine heart (Roche) (porcine, UniProt P00889 28-464)
T2 construct: Bought protein spotted on nitrocellulose
T2 sequence (looked up): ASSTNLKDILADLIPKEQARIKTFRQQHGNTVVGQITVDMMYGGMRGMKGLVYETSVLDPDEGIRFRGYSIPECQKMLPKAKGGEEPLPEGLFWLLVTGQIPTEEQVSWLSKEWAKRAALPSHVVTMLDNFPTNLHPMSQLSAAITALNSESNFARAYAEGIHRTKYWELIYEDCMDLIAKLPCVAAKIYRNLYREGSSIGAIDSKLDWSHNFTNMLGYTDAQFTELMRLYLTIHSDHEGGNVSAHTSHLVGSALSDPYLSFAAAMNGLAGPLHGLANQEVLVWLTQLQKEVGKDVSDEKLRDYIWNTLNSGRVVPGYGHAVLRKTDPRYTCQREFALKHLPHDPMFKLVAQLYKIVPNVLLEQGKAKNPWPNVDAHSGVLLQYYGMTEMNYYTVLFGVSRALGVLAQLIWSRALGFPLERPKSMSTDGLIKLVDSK

B1: biotin-AFVDAISAVYTA (peptide)
peptide: Biotin-AFVDAISAVYTA
notes: Synthetic biotinylated peptide; also called interferor molecule with a specificity for glucose-6-phosphate dehydrogenase; biotinylated detection peptide
B2: biotin-ALFWLLVT (peptide)
peptide: Biotin-ALFWLLVT
notes: Synthetic biotinylated peptide (Jerine Peptide Technologies); biotin is part A, the peptide is part B; also called interferor molecule with a specificity for citrate synthase; biotinylated detection peptide

How the values were obtained:
[1] = target: T1, glucose-6-phosphate dehydrogenase from …; experiment: dot blot: 0.3 mg target protein on nitrocellulose, 10 mM biotinylated peptide, streptavidin-HRP chemiluminescence
[2] = target: T2, citrate synthase from porcine heart …; experiment: as above

| Binder | binding result [1] | binding result [2] |
| --- | --- | --- |
| B1 | binds | – |
| B2 | – | binds |

From patent US20090012275A1 (VIB VZW, published 2009)
